# Where two headings read alike, the source gives them in different places. Non-standard residues stand in square brackets, D forms with d. No end group written: not given here. *: point of attachment. NMeY = CN[C@@H](Cc1ccc(O)cc1)C(=O)O; Agmatine = N=C(N)NCCCCN*; Nle = CCCC[C@H](N)C(=O)O; Orn = NCCC[C@H](N)C(=O)O; Abu = CC[C@H](N)C(=O)O
# T1: GHRH receptor (rat) (rat, UniProt Q02644)
# T1 sequence: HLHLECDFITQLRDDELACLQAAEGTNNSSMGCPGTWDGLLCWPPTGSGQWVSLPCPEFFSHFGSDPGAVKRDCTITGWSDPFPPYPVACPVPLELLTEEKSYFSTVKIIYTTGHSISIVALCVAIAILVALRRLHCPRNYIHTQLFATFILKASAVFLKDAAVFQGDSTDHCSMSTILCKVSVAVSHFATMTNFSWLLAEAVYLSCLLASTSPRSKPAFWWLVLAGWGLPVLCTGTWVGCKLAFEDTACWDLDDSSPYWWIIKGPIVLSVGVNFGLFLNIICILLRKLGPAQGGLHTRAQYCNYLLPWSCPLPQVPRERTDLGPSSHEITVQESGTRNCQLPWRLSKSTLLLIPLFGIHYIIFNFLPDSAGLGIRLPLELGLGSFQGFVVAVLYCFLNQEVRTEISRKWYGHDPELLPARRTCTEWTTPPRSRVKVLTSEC
# T2: GHRH receptor in human pituitary membrane homogenates (human, UniProt Q02643)
# T2 sequence: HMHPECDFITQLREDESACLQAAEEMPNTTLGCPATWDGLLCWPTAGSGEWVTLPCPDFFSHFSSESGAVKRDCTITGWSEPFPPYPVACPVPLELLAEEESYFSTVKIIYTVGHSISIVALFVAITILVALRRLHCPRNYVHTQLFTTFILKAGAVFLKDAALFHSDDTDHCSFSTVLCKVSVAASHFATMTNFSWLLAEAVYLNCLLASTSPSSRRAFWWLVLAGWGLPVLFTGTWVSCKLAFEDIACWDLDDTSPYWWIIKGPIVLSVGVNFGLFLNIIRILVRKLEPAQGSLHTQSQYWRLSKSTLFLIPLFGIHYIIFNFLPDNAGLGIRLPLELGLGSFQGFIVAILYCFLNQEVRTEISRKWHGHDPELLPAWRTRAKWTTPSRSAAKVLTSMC
# Assays:
# [1] = molecular target: GHRH receptor in human pituitary membrane homogenates (human) (UniProt Q02643); assay: ligand competition, 125I-JV-1-42 displaced, human pituitary membranes
# [2] = molecular target: GHRH receptor in human pituitary membrane homogenates (human) (UniProt Q02643); assay: ligand competition, [His1,125I-Tyr10,Nle27]hGHRH(1-32)NH2 displaced, human pituitary membranes
# [3] = molecular target: GHRH receptor in human pituitary membrane homogenates (human) (UniProt Q02643); assay: ligand competition, 125I-JV-1-42 displaced, human pituitary membranes; remark: listed apart in the source
# [4] = molecular target: T1, GHRH receptor (rat)
# [5] = molecular target: T2, GHRH receptor in human pituitary …; assay: ligand competition, 125I-JV-1-42 displaced, human pituitary membranes
# [6] = molecular target: T1, GHRH receptor (rat); assay: cell-based or functional assay
# [7] = molecular target: T2, GHRH receptor in human pituitary …; assay: ligand competition, 125I-JV-1-42 displaced, human pituitary membranes; remark: listed apart in the source
IC50 [1],relative affinity (binding potency) vs GHRH (GHRH(1-29) = 1) [1],IC50 [2],relative affinity (binding potency) vs GHRH (GHRH(1-29) = 1) [2],relative affinity (binding potency) vs JI-38 [2],IC50 [3],relative affinity (binding potency) vs JI-38 [3],"GH release from superfused rat pituitary cells, 1 nM for 3 min, GH by ELISA (peak fraction, average) [4]",IC50 [5],relative affinity (binding potency) vs GHRH [5],relative affinity (binding potency) vs JI-38 [5],GH-releasing potency in superfused rat pituitary cells relative to JI-38 [6],IC50 [7],relative affinity (binding potency) vs JI-38 [7],Molecule
1.71 nM,2.4,1.95 nM,3.03,1 JI-38 = 1,4.35 nM,1 JI-38 = 1,195 ng/mL,,,,,,,JI-38 (peptide)
,,,,,,,,0.01 nM,406 GHRH(1-29) = 1,171 JI-38 = 1,~3 times (vs JI-38),0.27 nM,16.1 JI-38 = 1,"[NMeY]ADAIFTQSYR[Orn]VL[Abu]QLSAR[Orn]LLQDI[Nle]D[Agmatine] [[N-Me-Tyr1, Gln8, Orn12, Abu15, Orn21, Nle27, Asp28, Agm29]hGHRH(1-29)]"

# Source: patent US9393271B2, “GHRH agonists for islet cell transplantation and function and the treatment of diabetes” (UNIVERSITY OF MIAMI, priority 2012, dated 2016)
